Source: US20110014125

Tests used:
[1] = test system: T1, oligopeptide SRSRSRSRSRSGRSAGGGC (SEQ ID NO: 18) as spacer between a pyrene fluorophore and a coumarin acceptor
T1 sequence: SRSRSRSRSRSGRSAGGGC

[2] = test system: Fe/Fe3O4 nanoparticle-TCPP assemblies featuring the urokinase cleavage sequence
[3] = test system: T2, oligopeptide CGGGSGRSAGGGC (SEQ ID NO: 35) linking two gold nanoparticles (Au-Au nanoparticle assembly)
T2 sequence: CGGGSGRSAGGGC

[4] = test system: T3, oligopeptide CGGGSGRSAGGGC (SEQ ID NO: 35) tethering Zn-TCPP and TCPP porphyrins to a stealth-protected Fe/Fe3O4 nanoparticle
T3 sequence: CGGGSGRSAGGGC

urokinase
coumarin emission (FRET from pyrene, excitation 280 nm) over 0-15 minutes [1]: The coumarin emission decreases with time | cleavage rate (rate constant k from TCPP luminescence at 656 nm vs. time) [2]: the cleavage rate increases by 3-5 times per order of magnitude of increase in urokinase concentration | maximum of the gold plasmon absorption (UV/Vis absorption, after 180 seconds with urokinase) [3]: shift from 523 nm to 517 nm within 180 seconds | maximum of the gold plasmon absorption (UV/Vis absorption, before cleavage) [3]: shift from 523 nm to 517 nm within 180 seconds | fluorescence band at 607 nm over 0-6 minutes [4]: distinct decrease of the fluorescence band at λ1=607 nm
